Read-outs that look alike come from different tables or passages of the source.
T1: Myc-tagged Bcl-w (human, UniProt Q92843 1-193)
T1 chain: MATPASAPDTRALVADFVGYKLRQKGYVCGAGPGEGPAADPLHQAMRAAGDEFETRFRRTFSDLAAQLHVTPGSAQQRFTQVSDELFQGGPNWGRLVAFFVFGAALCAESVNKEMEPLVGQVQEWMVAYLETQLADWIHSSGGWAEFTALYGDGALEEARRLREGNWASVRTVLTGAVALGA

T2: Myc-tagged Bfl-1 (human, UniProt Q16548 1-175)
T2 chain: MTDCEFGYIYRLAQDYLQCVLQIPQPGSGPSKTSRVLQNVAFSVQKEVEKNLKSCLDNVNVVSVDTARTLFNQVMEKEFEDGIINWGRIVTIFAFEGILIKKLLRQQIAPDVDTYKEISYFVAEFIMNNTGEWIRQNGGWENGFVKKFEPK

T3: Myc-tagged Mcl-1 (human, UniProt Q07820 1-350)
T3 chain: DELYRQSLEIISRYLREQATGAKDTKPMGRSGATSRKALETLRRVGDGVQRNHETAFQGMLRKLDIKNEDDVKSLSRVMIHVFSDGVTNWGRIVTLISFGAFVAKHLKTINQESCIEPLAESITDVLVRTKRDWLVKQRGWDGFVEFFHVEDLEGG


Experiments:
Assay in all cases: FP
[1] = molecular target: T1, Myc-tagged Bcl-w
[2] = molecular target: T2, Myc-tagged Bfl-1
[3] = molecular target: T3, Myc-tagged Mcl-1
[4] = molecular target: Myc-tagged Bcl-2 (human, UniProt P10415 1-239)
[5] = molecular target: Myc-tagged Bcl-xL (human, UniProt Q07817-1 1-233)
[6] = molecular target: T2, Myc-tagged Bfl-1

Chain of Myc-tagged Bcl-xL (Q07817 1-209): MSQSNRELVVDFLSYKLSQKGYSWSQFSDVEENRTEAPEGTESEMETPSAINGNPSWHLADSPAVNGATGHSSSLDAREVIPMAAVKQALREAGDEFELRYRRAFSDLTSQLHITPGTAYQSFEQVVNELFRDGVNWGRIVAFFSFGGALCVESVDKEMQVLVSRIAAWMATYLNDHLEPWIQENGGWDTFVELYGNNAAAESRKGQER
Chain of Myc-tagged Bcl-2 (P10415 1-211): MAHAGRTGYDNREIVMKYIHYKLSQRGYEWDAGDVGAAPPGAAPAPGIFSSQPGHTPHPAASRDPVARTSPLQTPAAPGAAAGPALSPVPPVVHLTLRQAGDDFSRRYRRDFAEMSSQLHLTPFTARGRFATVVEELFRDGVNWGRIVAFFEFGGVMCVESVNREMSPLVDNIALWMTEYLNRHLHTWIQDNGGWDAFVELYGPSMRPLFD

Binder | Ki [1] | Ki [2] | Ki [3] | Ki [4] | Ki [5] | Ki [6]
Ac-QWIREIAAGLRRFADILNAQVER-NH2 (designed binder) [FS3] | 770 nM | 2.1 nM | 550 nM | 2000 nM | 320 nM | –
Ac-QWVREIAAGLRRAADDVNAQVER-NH2 (designed binder) [FS2] | > 5000 nM | 21 nM | 3200 nM | 2400 nM | > 5000 nM | –
Ac-QWVREIAAGLRLAADNVNAQLER-NH2 (designed binder) [FS1] | > 5000 nM | – | > 5000 nM | > 5000 nM | 2400 nM | –

Next, values leading:

Ki [1] | Ki [2] | Ki [3] | Ki [4] | Ki [5] | Ki [6] | Binder
3 nM | 4.8 nM | 2.4 nM | – | – | – | Ac-QWAREIGAQLRRMADDLNAQYER-NH2 [PUMA BH3 peptide (23 residues)]
– | – | – | – | – | 600 nM | Ac-QWAREIGAGLRRAADDVNAQVER-NH2 [PUMA/FS2 chimeric peptide with the smaller residues of FS2 at positions 2g, 3d, 4a and 4e]
– | – | – | – | – | 2.1 nM | Ac-QWVREIAAQLRRMADDLNAQYER-NH2 [PUMA/FS2 chimeric peptide with the larger residues of FS2 at positions 2a and 2e]

From publication PMC5464773 (2017)
